According to patent US6875571B2, “NF-AT polypeptides and polynucleotides and screening methods for immunosuppressive agents” (The Board of Trustees of the Leland Stanford Junior …, priority 1991, dated 2005):

Tests used:
Format in all cases: cell-based, human
AP-1 site = test: Secreted alkaline phosphatase reporter in Jurkat Tag cells, AP-1 reporter; details: transfection, 20 ng/ml PMA alone
Description: (§1) Jurkat Tag cells were transfected with vector plasmid (control) or with the dominant negative NF-ATc plasmid, plus the indicated secreted alkaline phosphatase reporter plasmid. Transfected cells were transferred to fresh culture medium 24 hours after transfection and secreted alkaline phosphatase activity was measured (Clipstone and Crabtree (1992) Nature 357: 695-698) 16 to 24 hours later, after stimulation with 1 uM ionomycin plus 20 ng/ml PMA (NF-AT and IL-2 reporters), 20 ng/ml PMA alone (AP-1 reporter) or no stimulation (RSV reporter). Bars indicate, secreted alkaline phosphatase activity from cells transfected with the dominant negative NF-ATc as a percentage of the activity from cells transfected in parallel with control plasmid, and represent data obtained from (n) independent transfections. The dominant negative NF-ATc consists of a carboxy terminal truncation of the epitope tagged NF-ATc expression plasmid extending to the PvuII site at amino acid 463.
(§2) The dominant negative NF-ATc used consists of a carboxy terminal truncation of the epitope tagged NF-ATc expression plasmid (supra) extending to the PvuII site at amino acid 463.

[1] = system: RSV promoter and enhancer; test: Secreted alkaline phosphatase reporter in Jurkat Tag cells, RSV reporter; details: transfection, no stimulation
Description: as §1, §2

NF-AT site = test: Secreted alkaline phosphatase reporter in Jurkat Tag cells, NF-AT reporter; details: transfection, 1 uM ionomycin plus 20 ng/ml PMA
Description: as §1, §2

IL-2 promoter = test: Secreted alkaline phosphatase reporter in Jurkat Tag cells, IL-2 reporter; details: transfection, 1 uM ionomycin plus 20 ng/ml PMA
Description: as §1, §2

B1: dominant negative NF-ATc: carboxy terminal truncation of the epitope tagged NF-ATc expression plasmid extending to the PvuII site at amino acid 463 (protein, UniProt Q13469 1-463, looked up, fragment)
chain: MNAPERQPQPDGGDAPGHEPGGSPQDELDFSILFDYEYLNPNEEEPNAHKVASPPSGPAYPDDVLDYGLKPYSPLASLSGEPPGRFGEPDRVGPQKFLSAAKPAGASGLSPRIEITPSHELIQAVGPLRMRDAGLLVEQPPLAGVAASPRFTLPVPGFEGYREPLCLSPASSGSSASFISDTFSPYTSPCVSPNNGGPDDLCPQFQNIPAHYSPRTSPIMSPRTSLAEDSCLGRHSPVPRPASRSSSPGAKRRHSCAEALVALPPGASPQRSRSPSPQPSSHVAPQDHGSPAGYPPVAGSAVIMDALNSLATDSPCGIPPKMWKTSPDPSPVSAAPSKAGLPRHIYPAVEFLGPCEQGERRNSAPESILLVPPTWPKPLVPAIPICSIPVTASLPPLEWPLSSQSGSYELRIEVQPKPHHRAHYETEGSRGAVKAPTGGHPVVQLHGYMENKPLGLQIFIGTA
modifications: epitope tag
transcription directed by the AP-1 site (AP-1 site): relatively unaffected
transcription directed by the RSV promoter and enhancer [1]: relatively unaffected
inhibition of transcription directed by the NF-AT site (NF-AT site): more than 90%
inhibition of IL-2 promoter function (IL-2 promoter): more than 90%
